# Source: patent US20160032001A1 (APEXIGEN, published 2016)
# Substitutions are numbered along the chain they refer to.
# T1: human RANKL protein (human, UniProt O14788 140-317, limits assumed)
# T1 sequence (looked up): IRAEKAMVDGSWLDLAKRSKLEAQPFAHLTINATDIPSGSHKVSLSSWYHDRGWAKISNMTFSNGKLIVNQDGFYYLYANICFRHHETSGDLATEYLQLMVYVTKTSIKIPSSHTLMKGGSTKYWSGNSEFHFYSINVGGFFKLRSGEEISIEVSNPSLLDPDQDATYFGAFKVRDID
# T2: RANKL expressed on the surface of 293 cells (UniProt O14788 1-317, limits assumed)
# T2 construct: whole, on cells; also called RANKL-transfected 293 cells; cells expressing RANKL
# T2 sequence (looked up): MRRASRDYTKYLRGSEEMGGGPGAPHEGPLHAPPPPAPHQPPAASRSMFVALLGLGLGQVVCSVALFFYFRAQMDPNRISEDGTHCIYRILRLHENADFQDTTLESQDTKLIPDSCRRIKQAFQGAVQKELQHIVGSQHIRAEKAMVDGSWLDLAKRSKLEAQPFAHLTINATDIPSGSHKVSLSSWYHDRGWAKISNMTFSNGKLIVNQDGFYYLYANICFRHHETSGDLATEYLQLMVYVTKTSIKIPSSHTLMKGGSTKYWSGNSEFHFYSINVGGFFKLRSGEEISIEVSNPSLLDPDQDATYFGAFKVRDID
# B1: clone 220 rabbit anti-RANKL antibody (antibody, V domains shown)
# VH: QSLEESGGRLVTPGTPLTLTCTVSGFSLSKYEINWVRQAPGKGLEWIGYIDVGSGTWYASWAKGRFTISKTSTTVALRITSPTTEDTATYFCSRQYNPMDLWGPGTLVTVSS
# VL: DMTQTPASVEAAVGGTVTIKCQASQNIGSNLAWYQQKPGQRPKLLIYSASTLASGVPSRFKGSGSGTQFTLTISGVQCDDAATYYCQQGYSVGNVNNAFGGGTEVVVK
# B2: clone 256 rabbit anti-RANKL antibody (antibody, V domains shown)
# VH: B1 VH
# VL: B1 VL
# B3: clone 227 rabbit anti-RANKL antibody (antibody, V domains shown)
# VH: B1 VH with T12K, G14D, T15E, P16T, S29Y, K30N, A76D, R78K, S93T, Q95K
# VL: B1 VL with A11V, R41P, A49T, L52V, S65F, V92A, A98P
# B4: clone 270 rabbit anti-RANKL antibody (antibody, V domains shown)
# VH: QSVEESGGRLVTPGTPLTLTCTVSGFSLSSDVMSWVRQAPGKGLDWIGYIWSGGRPYYANWAKGRFTISKSSSTTVDLKITSPTTEDTAAYFCARGFGSSGLNIWGPGTLVTVSL
# VL: B1 VL with A11V, S29Y, R41P, S48G, G93S, V95I, N96D
# B5: clone 238 rabbit anti-RANKL antibody (antibody, V domains shown)
# VH: QEQLKESGGGLVTPGGTLTLTCTASGFSLNTNAMSWVRQAPGKGLEWIGYIYSGGSPYYANWAKGRFTISRTSTTVHLKMTSLTTEDTATYFCASHTSGGGWYLDIWGPGTLVTVSL
# VL: DMIQTPASVEVAVGGTVTINCQASQNIGSNLAWYQQKPGQPPKLLIYGTSTLASGVSSRFKGSGFGTQFTFTISDVECTDAATYYCQQAYSTSKIDNAFGGGTEVVVK
# B6: clone 246 rabbit anti-RANKL antibody (antibody, V domains shown)
# VH: QSVKESGGGLVTPGGTLTLTCTASGLSLSGNGMSWVRQAPGKGLEWIGYIYSGSSPYYASWAKGRFTISKTSSTTVDLKMTSLTTEDTATYFCARHTSGGGWYLDIWGPGTLVTVSL
# VL: DMIQTPASVEVAVGGTVTINCQASQSIGSNLAWYQQKPGQPPKLLIYSASTLASGVSSRFKGSGSGTDYTLTISDVECTDAATYYCQQAYSISNVENPFGGGTEVVVK
# B7: clone 299 rabbit anti-RANKL antibody (antibody, V domains shown)
# VH: QSLEESGGRLVTPGTPLTLTCTVSGIDLSSSLMTWVRQAPGKGLEWIGYIWSGGAPFYASWAKGRFTISKTSSTTVDLKMTSLTTEDTATYFCAARYTDSGFDALDPWGPGTLVTVSS
# VL: DMTQTPASVEAAVGGTVTIKCQASQSIGSYLSWYHQKPGQPPKLLIYRASTLASGVPSRFKGSGSGTQFTLTISDLECADAATYYCQQGYSANVDNAFGGGTEVVVK
# B8: clone 383 rabbit anti-RANKL antibody (antibody, V domains shown)
# VH: QSLEESGGDLVKPGASLTLTCTASGFSFSRYVCWVRQAPGKGLEWIGCIAAGSSGYTYYASWAKGRLTISKTSSTTLTLQMTSLTVADTATYFCARSGDSYVGYFNLWGPGTLVTVSS
# VL: IVMTQTPASVEAAVGGTVTIKCQASQNIYNYLAWYQQQPGQPPKLLIYSASNLASGVSSRFKGSGSGTEFTLTISDLECGDAATYYCQSYYDSSRISYGSAFGGGTEVVVK
# B9: clone 388 rabbit anti-RANKL antibody (antibody, V domains shown)
# VH: QSVEESGGRLVTPGTPLTLTCTVSGFSLSSGVVSWVRQAPGKGLEWIGYAWSGGPTYYANWAKGRFTISKSSTTVDLKITSPTTADTATYFCARGYNGMDPWGPGTLVTVSS
# VL: DMTQTPASVEVAVGGTVTIKCQASQNIGSNLAWYQQKPGQPPKLLIYKASTLASGVPSRFRGSGSGTEFTLAISDLECADAATYYCQQGYTTKDVVNPFGGGTEVVVK
# B10: clone 379 rabbit anti-RANKL antibody (antibody, V domains shown)
# VH: B5 VH with G26R, N30I, T31N, N32I, A33G, K43R, H77D, S95R, T97A, G99D
# VL: B5 VL with N26S, G48L, T49A, A53P, S57P, F65S, S91T, T92A, K94N, I95V
# B11: clone 318 rabbit anti-RANKL antibody (antibody, V domains shown)
# VH: QDQLKESGGGLVTPGGTLTLTCTASGFSLGSNGMSWVRQAPGKGLEWIGYIYSGSSPYYASWAKGRFTISKTSSTTVDLKMTSLTTEDTATYFCAGHAKGGGWYLDIWGPGTLVTVSL
# VL: DMTQTPASVSAAVGGTVTINCQASQSIGSNLGWYQQKPGQPPKLLIYGASTLASGVSSRFKGSGSGTHFAFTISDVECTDAATYYCQQAYSVGNVDNAFGGGTEVVVK
# B12: clone 91 rabbit anti-RANKL antibody (antibody, V domains shown)
# VH: QSLEESGGRLVKPDETLTLTCTVSGSSLYNYEINWVRQAPGKGLEWIGYIDVGSGTWYASWAKGRFTISKTSTTVDLKITSPTTEDTATYFCTRKYNPMDLWGPGTLVTVSS
# VL: B1 VL with A11V, R41P, A49T, L52V, S65F, V92A, A98P
# B13: clone 565 rabbit anti-RANKL antibody (antibody, V domains shown)
# VH: B11 VH with D2E, Q3D, V12I, A24G, G30S, N32D, S61N, G96R, A98L, K99S
# VL: DMIQTPASVSEPVGGTVTINCQASQNIGSNLAWYQQKPGQPSKLLIYKASTLASGVPSRFKGSGSGTDFTLTISDLECADAATYYCQQAYTISNVDNAFGGGTEVVVK
# B14: clone 37 rabbit anti-RANKL antibody (antibody, V domains shown)
# VH: B4 VH with S30N, D45E, R55S
# VL: B1 VL with A11V, N26S, R41S, T51I, V95I, N96D
# B15: clone 68 rabbit anti-RANKL antibody (antibody, V domains shown)
# VH: QEQLKESGGGLVKPDESLTLTCTASGFSLSSNGMSWARQAPGKGLEWIGYIYAGSSPYYANWAKGRFTISKTSSTTVDLKVTSLTTEDTATYFCARHASGGGWYLAIWGPGTLVTVSL
# VL: B6 VL with N20G, A32G, D68E, Y69F, T79D, I92V, E96D, P98A
# B16: clone 147 rabbit anti-RANKL antibody (antibody, V domains shown)
# VH: B9 VH with L17Q, S30T, G31D, A50T, S52N, P55A, N60S, I68F, S71T, A85E
# VL: B9 VL with Y47S, R61K, D94N
# B17: clone 130 rabbit anti-RANKL antibody (antibody, V domains shown)
# VH: B9 VH with P55A, N60S
# VL: B9 VL with V95L
# B18: clone 7 rabbit anti-RANKL antibody (antibody, V domains shown)
# VH: B11 VH with D2E, G30T, S31T, S55G, S61N, G96R, A98L, K99S
# VL: B5 VL with I3T, T49A, F65S, A81P, T92I, K94N, I95V, A98P
# Target: T1, human RANKL protein
# Assay: competition ELISA: RANKL (0.5 ug/ml) pre-incubated with the antibody, then binding to coated human RANK (8 ug/ml) detected; blocked partner RANK
row,IC50 [µg/mL],Binder
1,0.0648,B1
2,0.0508,B2
3,0.0643,B3
4,0.058,B4
5,0.0596,B5
6,0.486,B6

# Target: T2, RANKL expressed on the surface of 293 …
# Assay: flow cytometry (MFI) on RANKL-transfected 293 cells
row,EC50 [µg/mL],Binder
1,0.153,B1
2,0.135,B2
3,0.0858,B3
4,0.0751,B4
5,0.207,B7
6,0.15,B8
7,0.665,B9
8,0.221,B10
9,0.2,B5
10,0.164,B11
11,1,B6

# Target: T1, human RANKL protein
# Assay: cell-based or functional assay
row,"IC50 in a RAW cell assay (TRAP activity, OD 405 nM) [µg/mL]",Binder
1,0.00488,B12
2,0.002,B8

# Target: T1, human RANKL protein
# Assay: surface plasmon resonance
Kd [nM],koff [s⁻¹],kon [M⁻¹ s⁻¹],Binder
0.589,0.000273,464000,B12

# Target: T2, RANKL expressed on the surface of 293 …
# Assay: flow cytometry (MFI) on RANKL-transfected 293 cells
# Remark: another data set of the same source
row,EC50 [µg/mL],Binder
1,0.0831,B13

# Target: T2, RANKL expressed on the surface of 293 …
# Assay: as above
# Remark: another data set of the same source
row,EC50 [µg/mL],Binder
1,0.0664,B12
2,0.137,B14
3,0.185,B15
4,0.0721,B16
5,0.21,B17
6,0.248,B18

# Target: T1, human RANKL protein
# Assay: competition ELISA: RANKL (0.5 ug/ml) pre-incubated with the antibody, then binding to coated human RANK (8 ug/ml) detected; blocked partner RANK
# Remark: another data set of the same source
row,IC50 [µg/mL],Binder
1,0.0907,B7
2,0.0621,B8
3,0.161,B9
4,0.0614,B10
5,0.0624,B11

# Target: T1, human RANKL protein
# Assay: as above
# Remark: another data set of the same source
row,IC50 [µg/mL],Binder
1,0.0645,B12
2,0.0436,B14
3,0.0766,B15
4,0.0706,B16
5,0.078,B17
6,0.0699,B18
